Stoichiometry N data for one substance are collected here from paper PMC4978566.

The target of the assay is A/California/04/2009 H1 (influenza A virus A/California/04/2009) (UniProt C3W5S1). The assay is described as follows: crystal structure.

Usually stoichiometry N stands for a count of units in the complex or per binding partner. As to “A/California/04/2009 H1 (from UniProt C3W5S1 18-520) (natural protein)”, the stoichiometry N turned out to be 2.
